Data from patent US20250340892.

Target: T1, Eglin C (secreted from E. coli W3110 via the MccV system, positive secretion supernatant)
T1 chain: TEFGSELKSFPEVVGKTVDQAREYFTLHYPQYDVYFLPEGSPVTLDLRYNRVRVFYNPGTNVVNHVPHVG

B1: neutrophil elastase (protein)
chain: IVGGRRARPHAWPFMVSLQLRGGHFCGATLIAPNFVMSAAHCVANVNVRAVRVVLGAHNLSRREPTRQVFAVQRIFENGYDPVNLLNDIVILQLNGSATINANVQVAQLPAQGRRLGNGVQCLAMGWGLLGRNRGIASVLQELNVTVVTSLCRRSNVCTLVRGRQAGVCFGDSGSPLVCNGLIHGIASFVRGGCASGLYPDAFAPVAQFVNWIDSIIQ
**Q.** Which “neutrophil elastase (NE) activity assay (fluorogenic substrate, RFU over time)” value does the source give for B1 here?
**A.** Its value is “NE activity with Eglin C positive secretion was comparable to positive control, which is NE with purified Eglin C (1.5 µM) while NE activity with Eglin C negative secretion showed a similar level with the sample having only NE”.
